Assay: soluble on expression in E. coli; label from the status in PepcDB or PDB records

Row | Sequence | soluble on expression in E. coli
1 | AAADSTSMSYSVTLTGPGPWGFRLQGGKDFNMPLTISRITPGSKAAQSQLSQGDLVVAIDGVNTDTMTHLEAQNKIKSASYNLSLTLQKSKRPIPISTTAPPVQTPLPVIPHQKDPALDTNGSLVAPSPSPEARASPGTPGTPELRPTFSPAFSRPSAFSSLAEASDPGPPRASLRAKTSPEGARDLLGPKALPGSSQPRQYNNPIGLYSAETLREMAQMYQMSLRGKASGVGLPGGSLPIKDLAVDSASPVYQAVIKSQNKPEDEADEWARRSSNLQSRSFRILAQMTGTEFMQDPDEEALRRSSTPIEHAPVCTSQATTPLLPASAQPPAAASPSAASPPLATAAAHTAIASASTTAPASSPADSPRPQASSYSPAVAASSAPATHTSYSEGPAAPAPKPRVVTTASIRPSVYQPVPASTYSPSPGANYSPTPYTPSPAPAYTPSPAPAYTPSPVPTYTPSPAPAYTPSPAPNYNPAPSVAYSGGPAEPASRPPWVTDDSFSQKFAPGKSTTSISKQTLPRGGPAYTPAGPQVPPLARGTVQRAERFPASSRTPLCGHCNNVIRGPFLVAMGRSWHPEEFTCAYCKTSLADVCFVEEQNNVYCERCYEQFFAPLCAKCNTKIMGEVMHALRQTWHTTCFVCAACKKPFGNSLFHMEDGEPYCEKDYINLFSTKCHGCDFPVEAGDKFIEALGHTWHDTCFICAVCHVNLEGQPFYSKKDRPLCKKHAHTINL | soluble
2 | AAKHHFDEIHYLDIVDCNGGDHHKAFATNFNPEINIREITQKGKYWENGRWIETEPQEIHKTLTYPSIGERESYLLYHEELESLVKNFPTIKRARFWMTFGQEYLTHLRVMQNIGMTRIDPIMYNGVEIVPIQFLKAVLPNPGDLGENYTGETSIGCRIRGIRDGKERTYYIWNNCSHEVAYKETGTQG | not soluble
3 | AALDDLIDTLGECEDTNKDDPPYTGPVVLDPMDSTYLEALGIKEGTIPPEYRKLLEKNEAITGPLPDSPKPMGIDHAIDALSSDFT | soluble
4 | ADDAKPRVKVPSSAKAGETVTVKALISHKMESGQRKDADGKLIPRSIINRFTCELNGVNVVDVAIDPAVSTNPYFEFDAKVDAAGEFKFTWYDDDGSVYEDVKPIAVA | soluble
5 | ADQRIKVAKPVVEMDGDEMTRIIWQFIKEKLILPHVDVQLKYFDLGLPNRDQTNDQVTIDSALATQKYSVAVKCATITPDEARVEEFKLKKMWKSPNGTIRNILGGTVFREPIICKNIPRLVPGWTKPITIGRHAHGDQYKATDFVVDRAGTFKIVFTPKDGSSAKQWEVYNFPAGGVGMGMYNTDESISGFAHSCFQYAIQKKWPLYMSTKNTILKAYDGRFKDIFQEIFEKHYKTDFDKYKIWYEHRLIDDMVAQVLKSSGGFVWACKNYDGDVQSDILAQGFGSLGLMTSVLVCPDGKTIEAEAAHGTVTRHYREHQKGRPTSTNPIASIFAWTRGLEHRGKLDGNQDLIRFAQTLEKVCVETVESGAMTKDLAGCIHGLSNVKLNEHFLNTSDFLDTIKSNLDRALGRQ | soluble
6 | ADVHDKATRSKNMRAIATRDTAIEKRLASLLTGQGLAFRVQDASLPGRPDFVVDEYRCVIFTHGCFWHHHHCYLFKVPATRTEFWLEKIGKNVERDRRDISRLQELGWRVLIVWECALRGREKLTDEALTERLEEWICGEGASAQIDTQGIHLLA | soluble
7 | ADVPAGVQLADKQTLVRNNGSEVQSLDPHKIEGVPESNVSRDLFEGLLISDVEGHPSPGVAEKWENKDFKVWTFHLRENAKWSDGTPVTAHDFVYSWQRLADPNTASPYASYLQYGHIANIDDIIAGKKPATDLGVKALDDHTFEVTLSEPVPYFYKLLVHPSVSPVPKSAVEKFGDKWTQPANIVTNGAYKLKNWVVNERIVLERNPQYWDNAKTVINQVTYLPISSEVTDVNRYRSGEIDMTYNNMPIELFQKLKKEIPNEVRVDPYLCTYYYEINNQKAPFNDVRVRTALKLALDRDIIVNKVKNQGDLPAYSYTPPYTDGAKLVEPEWFKWSQQKRNEEAKKLLAEAGFTADKPLTFDLLYNTSDLHKKLAIAVASIWKKNLGVNVNLENQEWKTFLDTRHQGTFDVARAGWCADYNEPTSFLNTMLSDSSNNTAHYKSPAFDKLIADTLKVADDTQRSELYAKAEQQLDKDSAIVPVYYYVNARLVKPWVGGYTGKDPLDNIYVKNLYIIKH | soluble
8 | AEFQVTSNEIKTGEQLTTSHVFSGFGCEGGNTSPSLTWSGVPEGTKSFAVTVYDPDAPTGSGWWHWTVVNIPATVTYLPVDAGRRDGTKLPTGAVQGRNDFGYAGFGGACPPKGDKPHHYQFKVWALKTEKIPVDSNSSGALVGYMLNANKIATAEITPVYEIKLE | soluble
9 | AESSADKFKRQHMDTEGPSKSSPTYCNQMMKRQGMTKGSCKPVNTFVHEPLEDVQAICSQGQVTCKNGRNNCHKSSSTLRITDCRLKGSSKYPNCDYTTTDSQKHIIIACDGNPYVPVHFDASV | soluble
10 | AFSFAAEHGLELDKVDIDLTDKAAMQDGARTFANYCMGCHSAKFQRYERVADDLGIPHELMLEKLVFTGAKIGDHMQIGMKPSDAKTWFGAAPPDLTLVARVRGTDWLYTYLRSFYEDPSRPYGVNNKVFPNVGMPNVLVGLQGNQVVGCKQVQTVVDGKKQFDPLTGSPLTHEACDQLTITPNSGTLTAEQFDEKVKNLVTFLAYSANP | not soluble
11 | AFTCHCRRSCYSTEYSYGTCTVMGINHRFCCL | soluble
12 | AGLKLMGAPVKLTVSQGQPVKLNCSVEGMEEPDIQWVKDGAVVQNLDQLYIPVSEQHWIGFLSLKSVERSDAGRYWCQVEDGGETEISQPVWLTVEGVPFFTVEPKDLAVPPNAPFQLSCEAVGPPEPVTIVWWRGTTKIGGPAPSPSVLNVTGVTQSTMFSCEAHNLKGLASSRTATVHLQ | soluble
13 | AHDNVVIFGDSMVADPLVSEVITGRLSSQPHCPHSPTSYAEIAAKRLGLESRNFSCAGAQVHIGGPFLKTSFIAQIDTAIAAGALDTHTRRVWITQGFNDAWSGHPAAQVVATMSEVIGRIRAHAPNARIQIVGYPQITHQGQLCLVR | not soluble
14 | AHHHHHHGSAGVRLVGVWKQFGSFTAVKDLTLEVRDGEFLVLLGPSGCGKTTTLRMIAGLEEPTKGQIYIGDKLVADPEKGVFVPPKDRDIAMVFQSYALYPHMTVYENIAFPLKLRKVPKQEIDKRVREVAEMLGLTELLNRKPRELSGGQRQRVALGRAIVRRPQVFLMDEPLSNLDAKLRVKMRAELKKLQKQLGVTTIYVTHDQVEAMTMGDRIAVMNQGVLQQVGTPEEVYEKPANTFVAGFIGSPPMNFLDATITEDGFLDFGEFRLKLLPDQFEVLQDYVGKEVIFGIRPEDIYDALFAQVKIPGENMARGVVDIIENLGGEKIVHISIGGLIVTAKFPGESRVKEGDEIDIVFDMKKIHIFNKKTGKAIL | soluble
15 | AHHHHHHGSDKVYLTWWQVDRAIFALAEKLREYKPDVIVGIARGGLIPAVRLSHILGDIPLKVIDVKFYKGIEERGEKPVITIPIHGDLKDKKVVIVDDVSDTGKTLEVVIEEVKKLGAKEVKVACLAMKPWTSVVPDYYVFRTEKWIVFPWEEFPVIERE | not soluble
16 | AHHHHHHGSIIRGDEPEQKALLRKLYRAGNYFMMGDEAIAYGAIFAGCRFYAGYPITPSSEIAETMARELPKVGGYYLQMEDEIASIAAIIGASWTGLKAMTATSGPGFSLMQENIGYAVMTETPVVIVDVQRSGPSTGQATKGAQGDFFQARWGTHGDHPIIAVSPISVEDAFWETIRAFNIAEQLRTPVIVLFDGILGHTREQIRIPDPDEVEISYRKLPRNEEEAKLPFGDPHGDGVPPMPIFGKGYFTHVTGSTHKENGLRDVYTPEVHDRLVRRLHKKIEKNRHIYEKYNEYFTDDAEILVVSWGVSARPSLGAVKKAREEGIKAGLFVPKTVHPFPGEKMRELGKKVRAILVPEMNLGQLILEVQRFVNDDVILKGVNKIGGVPITVEEILREIRGVA | not soluble
17 | AHHHHHHGSKILVVAPCLLTPFYVYRGPKDKEYKTSSELRKLLAELSDEWFIFLYPCPELLAVGWPRPPMSREVLERLGTRERSKIIADFIGRVLTEEKPEKVVFVGVKGSPTCGVFTTTSSNPDEFPYVAVQEFFYLSKEERLRKYKELTKNFKVINAPGLLFEILMARFPEAIFVEFDKDNIEESIRRIREVVKE | soluble
18 | AHHHHHHGSKPKVFITRAIPENGINMLEEEFEVEVWEEEREIPREKLLEKVKDVDALVTMLSERIDQEVFENAPRLRIVANYAVGYDNIDVEEATRRGIYVTNTPDVLTNATADHAFALLLATARHVVKGDKFVRSGEWKRKGIAWHPKWFLGYELYGKTIGIVGFGRIGQAIARRAKGFNMRILYYSRTRKSQAEKELGAEYRPLEEVLKESDFVILAVPLTKETMYMINEERLKLMKPTAILVNIARGKVVDTKALIKALKEGWIAGAGLDVFEEEPYYNEELFSLDNVVLTPHIGSATFEAREAMAELVARNLIAFKRGEIPPTLVNKEVIKIRKPGFNEQ | not soluble
19 | AHHHHHHGSNKRFPFPVGEPDFIQGDEAIARAAILAGCRFYAGYPITPASEIFEAMALYMPLVDGVVIQMEDEIASIAAAIGASWAGAKAMTATSGPGFSLMQENIGYAVMTETPVVIVDVQRSGPSTGQPTLPAQGDIMQAIWGTHGDHSLIVLSPSTVQEAFDFTIRAFNLSEKYRTPVILLTDAEVGHMRERVYIPNPDEIEIINRKLPRNEEEAKLPFGDPHGDGVPPMPIFGKGYRTYVTGLTHDEKGRPRTVDREVHERLIKRIVEKIEKNKKDIFTYETYELEDAEIGVVATGIVARSALRAVKMLREEGIKAGLLKIETIWPFDFELIERIAERVDKLYVPEMNLGQLYHLIKEGANGKAEVKLISKIGGEVHTPMEIFEFIRREFK | soluble
20 | AHHHHHHGSPCYNLKNKVAIVTGGGQGIGAAIAQLFAENGAKVVLAEIDEEAGLEREAMLRERGLDVTFIKTDVADEESVKNMVKKTVELYGGVDILVNNAAIMSVKSIFERTLEEWERVIRVNLTGPYICSRYAAEEMIKRGGGVIINIASTRALMSEPDTEPYSASKGGLLALTHSLAISLAKYRIRVVAVSPGWIETSRWKKSKLRSEPKLRPIDHEQHPAGRVGDPMDIAHICAFLADNEKAGFITGVNFVVDGGMTVKMIYAD | not soluble
21 | AHHHHHHGSPDVYEPIMGAFSLARRLWKMIVEKKGLPTGDDVASLLENLGFERVCTGSGLAVFRNRFVIALLIPRENMIVVDFLSSSGELSDALELIAYYDKEIECYVVEILPSNELEYEENLGIEPVIIDGKTFELRSYPVLGDFKQGKDKVVLKIDREVYELWKESGKLDVCPVCGGHLRWKQGKALCTECGIEVVVDEEH | soluble
22 | AIAASGKRKGLSFDDKKTRLLELFNETCDFYTLKELEKIAPKLKGIITQSVKDVLQSLVDDDLVNSDKCGVQTIYWCLPSEAVAKRQRRLDALQQQLAEKRQKLTALQRQLVQVQAGREDSVERTAVLERLAACEAAWRERQRTLESYLECDPDVLAQRETETKTLIEQANRWTDNLYVIRSYVQRNLGVDLDLFDQQFELKPALQYLE | soluble
23 | AIAHAASFRDCKAWQSDGLPLSSSSNEACKLYDAILSQYVTWRNDETLGGIEGCITSIKAADPDFVMGHVISTGLELVGTGSSVLRDERLASAVRRTVELADTQQLTSREKNHVKAVQLFSKGSVHRNLTFMFNG | soluble

From the DeepSol protein solubility set
